B1: ligelizumab single chain fragment variable (scFv) (scFv)
scFv: QVQLVQSGAEVMKPGSSVKVSCKASGYTFSWYWLEWVRQAPGHGLEWMGEIDPGTFTTNYNEKFKARVTFTADTSTSTAYMELSSLRSEDTAVYYCARFSHFSGSNYDYFDYWGQGTLVTVSSGTGGSGGGGSGGGGSGGGASEIVMTQSPATLSVSPGERATLSCRASQSIGTNIHWYQQKPGQAPRLLIYYASESISGIPARFSGSGSGTEFTLTISSLQSEDFAVYYCQQSWSWPTTFGGGTKVEIKENLYFQ
notes: ligelizumab VH domain; GTG(GSGGG)3AS linker; ligelizumab VL domain; also called ligelizumab scFv; ligelizumab single chain Fv; source: HEK 293-6E, co-transfected with IgE-Fc3-4, complex purified from supernatant (Ni-NTA, Superdex 200); not shown: His8, C-terminal, cleaved
B2: Recombinant extracellular part of human FcεRIα (receptor, UniProt P12319 26-205, looked up)
chain: VPQKPKVSLNPPWNRIFKGENVTLTCNGNNFFEVSSTKWFHNGSLSEETNSSLNIVNAKFEDSGEYKCQHQQVNESEPVYLEVFSDWLLLQASAEVVMEGQPLFLRCHGWRNWDVYKVIYYKDGEALKYWYENHNISITNATVEDSGTYYCTGKVWQLDYESEPLNITVIKAPREKYWLQ
notes: also called recombinant human FcεRIα
B3: mutated C335 IgE-Fc3-4 (domain or fragment)
chain: AADSNPRCVSAYLSRPSPFDLFIRKSPTITCLVVDLAPSKGTVNLTWSRASGKPVNHSTRKEEKQRNGTLTVTSTLPVGTRDWIEGETYQCRVTHPHLPRALMRSTTKTSGPRAAPEVYAFATPEWPGSRDKRTLACLIQNFMPEDISVQWLHNEVQLPDARHSTTQPRKTKGSGFFVFSRLEVTRAEWEQKDEFICRAVHEAASPSQTVQRAVSVNPGK
modifications: Disulfide-linked homodimer via Cys335 (entity position 11), closed Cε3 conformation; N-glycosylated at Asn394. The change is not given; it is taken from 5HYS entity 3 (C328A/G335C). …
B4: mutated C335 IgE-Fc3-4 (domain or fragment)
chain: B3 chain
B5: Ligelizumab IgG (antibody, V domains shown)
VH: QVQLVQSGAEVMKPGSSVKVSCKASGYTFSWYWLEWVRQAPGHGLEWMGEIDPGTFTTNYNEKFKARVTFTADTSTSTAYMELSSLRSEDTAVYYCARFSHFSGSNYDYFDYWGQGTLVTVSS
VL: EIVMTQSPATLSVSPGERATLSCRASQSIGTNIHWYQQKPGQAPRLLIYYASESISGIPARFSGSGSGTEFTLTISSLQSEDFAVYYCQQSWSWPTTFGGGTKVEIK
notes: constant region of the IgG heavy chain; constant region of the light chain; also called QGE031; source: produced and provided by Novartis Pharma AG
B6: Ligelizumab IgG (antibody, V domains shown)
VH: B5 VH
VL: B5 VL
notes: heavy chain constant region of the IgG; light chain constant region; also called QGE031; source: produced and provided by Novartis Pharma AG
B7: wild-type IgE-Fc3-4 (co-expressed with the ligelizumab scFv for crystallisation) (domain or fragment, human)
chain: CADSNPRGVSAYLSRPSPFDLFIRKSPTITCLVVDLAPSKGTVNLTWSRASGKPVNHSTRKEEKQRNGTLTVTSTLPVGTRDWIEGETYQCRVTHPHLPRALMRSTTKTSGPRAAPEVYAFATPEWPGSRDKRTLACLIQNFMPEDISVQWLHNEVQLPDARHSTTQPRKTKGSGFFVFSRLEVTRAEWEQKDEFICRAVHEAASPSQTVQRAVSVNP
notes: human IgE heavy chain constant region, Cε3 and Cε4 domains, wild type (C328); also called C328 IgE-Fc3-4 fragment; wt C328 IgE-Fc3-4; source: HEK 293-6E, co-transfected with ligelizumab scFv, complex purified from supernatant (Ni-NTA, Superdex 200)

What was measured:
[1] = biological target: B7; assay: crystal structure; scFv:IgE-Fc3-4 complex, hanging drop, 0.2 M Na thiocyanate pH 6.9, 20% PEG3350, 10 mM spermidine, 14 °C; 3.65 Å; details: both partners purified
wild-type C328 IgE-Fc3-4 [2] = biological target: T1, wild-type C328 IgE-Fc3-4 (human, UniProt P01854 209-426); assay: SPR; 1000 RU FcεRIα immobilised, 20 nM IgE-Fc3-4 captured; 3.13–100 nM ligelizumab or omalizumab injected 120 s, dissociation 180 s; details: both partners purified
T1 construct: human IgE heavy chain constant region, Cε3 and Cε4 domains, variant named C328; also called wt C328 IgE-Fc3-4

Ligelizumab IgG = biological target: T2, Ligelizumab IgG; assay: SPR; 100 RU ligelizumab or omalizumab IgG immobilised by amine coupling on CM5 (ligelizumab pH 5.0, omalizumab pH 4.5); 0.3-5 nM C328 or C335 IgE-Fc3-4 injected 120 s, dissociation 180 s; HBS-EP+, 10 ul/min, Biacore X100; 1:1 langmuir fit; details: both partners purified
T2 construct: constant region of the IgG heavy chain; constant region of the light chain; also called QGE031; source: produced and provided by Novartis Pharma AG

Omalizumab IgG = biological target: T3, Omalizumab IgG; assay: as above; details: both partners purified
T3 construct: also called Xolair; source: produced and provided by Novartis Pharma AG

wild-type C328 IgE-Fc3-4 [3] = biological target: T4, wild-type C328 IgE-Fc3-4 (Homo sapiens, UniProt P01854); assay: as above; details: both partners purified
T4 construct: human IgE heavy chain constant region, Fc fragment of the Cε3 and Cε4 domains, wild-type variant named C328; PDB 6UQR holds wt C328 IgE-Fc3-4 made in HEK 293-6E for the crystal; also called wt C328 IgE-Fc3-4

wild-type C328 IgE-Fc3-4 [4] = biological target: T5, wild-type C328 IgE-Fc3-4 (human, UniProt P01854); assay: SPR; Biacore X100, CM5 chip, HBS-EP+; 100 RU ligelizumab or omalizumab IgG immobilised; 0.3–5 nM C328 or C335 IgE-Fc3-4 injected 120 s, dissociation 180 s; details: both partners purified
T5 construct: human IgE heavy chain constant region, Cε3 and Cε4 domains, variant named C328; also called wt C328 IgE-Fc3-4

[5] = biological target: the molecule itself; assay: crystal structure; scFv:IgE-Fc3-4 complex, hanging drop, 0.2 M Na thiocyanate pH 6.9, 20% PEG3350, 10 mM spermidine, 14 °C; 3.65 Å

Binder: B1
binding result [1]: binds

Binder: B2
binding result (wild-type C328 IgE-Fc3-4 [2]): binds

Binder: B3
Kd (Ligelizumab IgG): 0.64 nM
koff (Ligelizumab IgG): 0.0065 s⁻¹
kon (Ligelizumab IgG): 1.1e+07 M⁻¹ s⁻¹

Binder: B4
Kd (Omalizumab IgG): 0.608 nM
koff (Omalizumab IgG): 0.0049 s⁻¹
kon (Omalizumab IgG): 7.7e+06 M⁻¹ s⁻¹

Binder: B5
Kd (wild-type C328 IgE-Fc3-4 [3]): 0.011 nM
koff (wild-type C328 IgE-Fc3-4 [3]): 0.00014 s⁻¹
kon (wild-type C328 IgE-Fc3-4 [3]): 1.3e+07 M⁻¹ s⁻¹

Binder: B6
fold higher affinity than C335 IgE-Fc3-4 (wild-type C328 IgE-Fc3-4 [4]): ~60 fold

Binder: B7
stoichiometry N [5]: 2
